Data from publication PMC9307851.

Target: DNMT3B MTase domain WT (human, UniProt Q9UBC3 569-853)
Assay: ITC; 5 C; ITC: 20 mM Tris-HCl pH 7.2, 200 mM NaCl, 5% glycerol, 2 mM b-mercaptoethanol, 5 C; EMSA: 50 mM Tris-HCl pH 8.0, 25% glycerol, 8% glucose, 2 mM DTT, 0.1 mg/mL BSA, 30 min, gel in 0.5x TBE at 4 C
Conditions: protein: recombinant; tags: His6-MBP removed by TEV; (only upper strand given)

B1: 24-mer DNA duplex (GAC)8 (dsDNA)
DNA 1: GACGACGACGACGACGACGACGAC
DNA 2: GTCGTCGTCGTCGTCGTCGTCGTC
**Q.** How did the Kd turn out when B1 was run?
**A.** Its Kd is 4 ± 0.1 µM.
